Measurements taken from patent publication US20200129630A1, “METHODS FOR TREATING CANCER” (BicycleRD Limited, priority 2018, published 2020).
Numbered stars: 1 amine (or outer) side, 2 acyl side, 3 side chain; on linkers, the order of the positions; unused ones are H or OH. Bridge positions count the residues as written; N and C are the ends. Square brackets hold non-standard residues; d marks the D form. Peptide text beside a SMILES is read from it. * marks the point of attachment. X1 = COc1cc2cc(c1Cl)N(C)C(=O)C[C@H](OC(=O)[C@H](C)N(C)C(=O)CCSSC(C)CCC(=O)*)[C@]1(C)O[C@H]1[C@H](C)[C@@H]1C[C@@](O)(NC(=O)O1)[C@H](OC)/C=C/C=C(\C)C2; 1Nal = N[C@@H](Cc1cccc2ccccc12)C(=O)O; TBMB = c1c(C[*:1])cc(C[*:3])cc1C[*:2]; Tle = CC(C)(C)[C@H](N)C(=O)O; βAla = NCCC(=O)O; Sar = CNCC(=O)O

How the values were obtained:
[1] = Stability in plasma in vitro, human; type: in vitro ADME; settings: 37° C.
Experimental: (§1) The stability of BT1718 was assessed in plasma and whole blood from humans, monkey, dog, mouse and rat. […] The mechanism for the difference in stability of the BT1718 peptide in whole blood between the different species is unknown.

[2] = BALB/c mouse PK study; settings: female; for Cmax: BALB/c mouse, 15 mg/m^2 (5 mg/kg) IV
[3] = test system: HT-29; experiment: In vitro cytotoxicity (CellTiter-Glo) HT-29; type: cell-based; settings: HT-29, Colorectal
Excerpt: (§2) Table 1 and Table 2 Notes: in general regression and stable disease correlated with the in vitro cytotoxicity and MT1-MMP expression. Female BALB/c mice n=3/group animals dosed twice per week except EBC-1 three per week. Tumor growth inhibition (TGI) (%)=[1−(Ti−T0)/(Vi−V0)]×100; Ti is the average tumor volume of a treatment group on a given day, TO is the average tumor volume of the treatment group on the day of treatment start, Vi is the average tumor volume of vehicle control group on the same day with Ti, and V0 is the average tumor volume of vehicle group on the day of treatment start. A one-way ANOVA was performed to compare tumor volume among groups, and when a significant F-statistics (a ratio of treatment variance to the error variance) was obtained, comparisons between groups were carried out with Games-Howell test. All data were analyzed using GraphPad Prism.* p<0.05, ** p<0.01, *** p<0.001. In vitro cytotoxicity was measured by CellTiter-Glo®, MT1-MMP membrane H score from immunohistochemistry staining, NM not measured. Tumor size on Day 1 of dosing.

[4] = Monkey GLP study toxicokinetics; type: in vivo; settings: plasma, Day 1 male; for clearance / half-life / Cmax / Vd: Cynomolgus; for Cmax: read-out: C0/Cmax; for Vd: read-out: Vdss
Excerpt: In a repeat dose experiment with BT1718 no significant gender-related differences in the TK parameters for the rat or monkey were noted. Exposure in both the rat and monkey increased approximately linearly with dose and was maintained for 28 days on repeat dosing. […] Plasma clearance and volume of distribution were similar across BT1718 dose and consistent with the PK studies.

[5] = Plasma protein binding, human; type: in vitro ADME
Experimental: (§3) Plasma protein binding of BT1718 was also assessed. The mean plasma protein binding of the BT1718 peptide ranged from 87% to 98%, with the free fraction of BT1718 being 13% in human, 2.6% in rats, 7.5% in mice, 3.8% in monkey and 1.5% in dog plasma, the results had no correlation to the plasma and whole blood stability data. […] Plasma protein binding of unconjugated DM1, has previously been reported, with the unbound fraction being 7% in human and monkey and 3% in rat.

[6] = Stability in plasma in vitro, mouse; type: in vitro ADME; settings: 37° C.
Experimental: as §1

[7] = LC-MS/MS quantification of DM1 in patient tumor samples; type: in vivo, patients; settings: three patient tumor samples
Experimental: A quantitative high performance liquid chromatography-tandem mass spectrometry (LC-MS/MS) method for the quantification of DM1 in tissue samples was developed.
DM1 was administered as complexed with a bicyclic peptide in […]. In order to determine the concentration of the free DM1 the conjugated molecule was reduced and subsequently derivatized with vinyl pyridine.
The same sample preparation procedure used for PK determination in the GLP pre-clinical studies, is applied for the determination of DM1 in tissue samples, In short: after tissue homogenization samples were reduced with TCEP prior derivatization by vinyl-pyiridine. […]
The homogenization method was optimized as follows: • 1) Thaw the tissue samples at room temperature. • 2) Weight the desired amount of tissue in a Precellys 2 mL Reinforced tube on an Analytical Balance. • 3) Use the weight of the tissue to calculate the volume of solution. […] Homogenization solution: (NaCl (0.9%): SDS (0.2 mg/mL) (50:50 v/v %)) • 4) Add the calculated amount of solution to the tissue. • 5) Vortex for approximately 5 seconds. • 6) Pre-cool the samples in a wet ice bath for approximately 8 minutes • 7) Run the Precellys-24 Dual homogenizer at 5000 rpm in five sessions of 40 seconds. • 8) Centrifuge the homogenate samples 3 minutes at 3000 rpm at 4° C. using a 5810-R centrifuge.

[8] = ECG, respiratory plethysmography and blood pressure (GLP safety pharmacology); type: in vivo; settings: monkeys 0.2, 0.5, 1 and 1.5 mg/kg twice weekly
Experimental: As part of the Good Laboratory Practice (GLP)-compliant toxicity studies, a core battery of safety pharmacology tests were performed. […] Electrocardiogram (ECG) and respiratory plethysmography measurements were taken in monkeys dosed at 0.2, 0.5, 1 and 1.5 mg/kg (2.4, 6, 12 and 18 mg/m^2 respectively) twice weekly on Day 4, Day 22 (following 2nd and 7th dose) and in the recovery period (for animals dosed with 0, 6 and 12 mg/m^2 twice weekly). Blood pressure (BP) measurements were also evaluated in the same monkeys on Day 1 and Day 25 and in the recovery period. […] It is therefore concluded that BT1718 has no cardiac, respiratory or behavioral liability at the doses and schedule tested in the GLP toxicity studies.

[9] = Stability in whole blood in vitro, monkey; type: in vitro ADME; settings: 37° C.
Experimental: as §1

[10] = Plasma protein binding, mouse; type: in vitro ADME, mice; settings: read-out: free fraction
Experimental: as §3

[11] = test system: MDA-MB-231; experiment: In vitro cytotoxicity (CellTiter-Glo) MDA-MB-231; type: cell-based; settings: MDA-MB-231, Breast
Excerpt: as §2

[12] = test system: EBC-1 xenograft; experiment: Dosing schedule experiment in EBC-1 xenograft mice; settings: 60 mg/m^2 once weekly
Experimental: Anti-tumor activity was compared when equivalent total weekly doses were administered either once, twice or three times weekly or once daily.

[13] = BALB/c, mouse, plasma, iv, 15 mg/m2
[14] = 2.4 mg/m2, Monkeys GLP, 2.4 mg/m^2 IV
[15] = 6 mg/m2, Monkeys GLP, 6 mg/m^2 IV
[16] = 12 mg/m2, Monkeys GLP, 12 mg/m^2 IV
[17] = 18 mg/m2, Monkeys GLP, 18 mg/m^2 IV

With COc1cc2cc(c1Cl)N(C)C(=O)C[C@H](OC(=O)[C@H](C)N(C)C(=O)CCSSC(C)CCC(=O)NCCC(=O)N(C)CC(=O)N(C)CC(=O)N(C)CC(=O)N(C)CC(=O)N(C)CC(=O)N(C)CC(=O)N(C)CC(=O)N(C)CC(=O)N(C)CC(=O)N(C)CC(=O)N[C@@H](C)C(=O)N[C@H]1CSCc3cc4cc(c3)CSC[C@H](NC(=O)[C@@H](C)NC(=O)[C@H](Cc3cccc5ccccc35)NC(=O)[C@H](CCC(=O)O)NC(=O)[C@H](CC(N)=O)NC(=O)[C@@H](C)NC1=O)C(=O)N[C@@H](CCC(=O)O)C(=O)N[C@@H](CC(=O)O)C(=O)N[C@@H](Cc1ccccc1)C(=O)N[C@@H](Cc1ccc(O)cc1)C(=O)N[C@@H](CC(=O)O)C(=O)N[C@@H](C(C)(C)C)C(=O)N[C@H](C(N)=O)CSC4)[C@]1(C)O[C@H]1[C@H](C)[C@@H]1C[C@@](O)(NC(=O)O1)[C@H](OC)/C=C/C=C(\C)C2 (some centres unmarked) [BT1718] ({X1-βAla}-[Sar][Sar][Sar][Sar][Sar][Sar][Sar][Sar][Sar][Sar]AC[dA]NE[1Nal][dA]CEDFYD[Tle]C-NH2; linker 12-18-25 via TBMB (inferred)) the half-life [1] was over 360 min, the AUC ([2]; BALB/c, mouse, plasma, intravenous, 5 mg/kg) was about 2.5 µM·h and the Cmax ([2]; BALB/c, mouse, plasma, iv, 5 mg/kg, C0/Cmax) was 8000 nM. For the same compound, the AUC [2, 13] was 2.3 ± 0.2 µM·h, the Vd [2, 13] was 0.23 ± 0.09 L/kg and the clearance [2, 13] was 7.5 ± 0.6 mL/min/kg. It also gave a half-life [2, 13] of 33.6 ± 10.8 min, a Cmax ([2]; read-out: C0/Cmax) of 7200 ± 410 nM and an IC50 [3] of 13 nM. The clearance [4, 14] was 13.4 ± 4.7 mL/min/kg, the half-life [4, 14] was 12.6 min and the Cmax [4, 14] was 200 ± 40 nM. The Vd [4, 14] was 0.24 ± 0.05 L/kg, the clearance [4, 15] was 8.8 ± 0.8 mL/min/kg and the half-life [4, 15] was 13.8 min. It also gave a Cmax [4, 15] of 670 ± 40 nM, a Vd [4, 15] of 0.17 ± 0.02 L/kg and a clearance [4, 16] of 8.2 ± 0.6 mL/min/kg. It also gave a half-life [4, 16] of 21.6 min, a Cmax [4, 16] of 1210 ± 90 nM and a Vd [4, 16] of 0.21 ± 0.01 L/kg. For the same compound, the clearance [4, 17] was 6.7 mL/min/kg, the half-life [4, 17] was 22.8 min and the Cmax [4, 17] was 2530 nM. It also gave a Vd [4, 17] of 0.16 L/kg, an AUC [4, 14] of 0.08 ± 0.02 µM·h and an AUC [4, 15] of 0.28 ± 0.03 µM·h. For the same compound, the AUC [4, 16] was 0.59 ± 0.14 µM·h, the AUC [4, 17] was 1.09 µM·h and the fraction unbound ([5]; human plasma, read-out: free fraction) was 0.13. The fraction unbound ([5]; range across human, rat, mouse, monkey and dog plasma, read-out: mean plasma protein binding) was 0.02 to 0.13, the half-life [6] was over 300 min and the “delivery of DM1 to tumor” value [7] was “delivery of DM1 to tumor in two patients”. For the same compound, the “ECG, respiratory plethysmography, blood pressure findings” value [8] was “no BT1718 related findings”, the half-life [9] was 120 to 240 min and the fraction unbound [10] was 0.075. For the same compound, the IC50 [11] was 39.8 nM and the weight loss [12] was over 10%.
